Assay results from the domain aggregation screens of Martell et al. (2025).

Assay: soluble fraction after stress (log2 fold change); higher = more stays soluble; pooled small domains, quantitative proteomics
Conditions: stress: pH 4
How it was run: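 With high-throughput quantitative proteomics, pooled custom libraries of small protein domains were measured after pH 4 stress. Each domain's soluble amount after the stress gives a fold change taken as aggregation propensity. Higher log2 values mean more of the domain stayed soluble.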

Sequence: HMNMAEQGISLDSEAGKARFVSQALPLLKQLPDGVFKQRMLNQLADRVEVTADFIAQQLAQLKAA
- soluble fraction (log2): -0.266

Sequence: HMGDTVSGTMLNLKPGVRVVHQIFGPGRVEETTGASLAEFRVTVRFEQKGLKTLLLQYAALQVINSEN
- soluble fraction (log2): -1.05

Sequence: HMDKEKLQEKLLQIFEAEPQKKFQVQDLVKVLDMEGAGQFKFVVQALADLEHNKQIKLSEDDTFSLIVKE
- soluble fraction (log2): 0.22

Sequence: HMKTITVEDEQAGKRLDKALAELFPHYSRSALEKLIKEGQVLVNKSFVKSKYSLKLGDEISLQFEQL
- soluble fraction (log2): 0.0205

Sequence: HMPYLVNGFILEVQSDDNNPVGTLKRRYAVAKNKQGVILLEGEKSFSSNDQILINELKFYIQSNDLKA
- soluble fraction (log2): -1.39

Sequence: HMVSPFQQQIADKVHNEIIAAKFNYDNATNENERLLAQLQAKKARELANQYGLDMSSYGADTTAERS
- soluble fraction (log2): 0.00762

Sequence: HMGKQPLYEQLVDLLRDRIENDMETGELLPSERKLAHHFGLSRTTVRLAMDRLETLGLITRVHGKDTFVAE
- soluble fraction (log2): -0.12

Sequence: HMVPAMEVALEDARRAIEQVVSGERTSVQLSSQEAMIRKLQHQMAKDANLFSRSSGVEPQRRVTIYTN
- soluble fraction (log2): -0.478

Sequence: HMKYVDYYATLGVARDADLATITKAYRKLARQTHPDLNQGADNEARFKAAAEAYATLKHPEKRAAYDELGQ
- soluble fraction (log2): 0.117

Sequence: HMANSANARKSLVSKLIAGGKIASQSDLVKALKKQGIVVTQGTASRDLEDIGAIRVRNSEGEIVYALT
- soluble fraction (log2): 0.108

Sequence: HMAVKNAQIDVQQFFYSKSGEVDFGRKIKAIQSHFTPERLQSFTAAVPPSQWVSQLQVMWDSL
- soluble fraction (log2): -1.68

Sequence: HMDDLSPEENKVIGAQVREELARRRLSRQHLADKAKISLSTLEKALTGTRPFTLASVVRIEEALQLQLRK
- soluble fraction (log2): 0.344

Sequence: HMQDKLLRKKEVLEMVSITNSTMYRMIGSGQFPRPIRLDNANINSGVRWKLSEINTFIEQRF
- soluble fraction (log2): -0.893

Sequence: HMQGEAMQETVKKLDAFLQDNSVSMSALARALGVSPSLISQFRSGSYKGDSQAIAAKINSYIDNHNKKSK
- soluble fraction (log2): 0.0656

Sequence: HMRLTTTPKTARGLTTMNRIIRAAEVEFGRKGYHYTGITDIAQRAKVASGTIYLYFTDKYSLYVHLLT
- soluble fraction (log2): 0.17

Sequence: HMTIELAEGQHFLQISKSGAPMGNVVRDLIIQTLKITNGNQIKAAKILGISRAKLRYRIEQLGINITGKNI
- soluble fraction (log2): -0.0446

Sequence: HMQLEPLITSVIPVNFAKAGEVATTIKGKEVGLVSDRGSITAESRTNVLIVKDIKKNVDDISAMVKRLD
- soluble fraction (log2): -0.0177

Sequence: HMAPNKLQQQEVWTKALPLLQQMIMTIRQIDAAGGDSSPERELLEETAARFDETLDVERFLP
- soluble fraction (log2): -0.774

Sequence: HMTDIKYLIADGNDIKHWDTASSSYVKVSELPLTSDKFKIYGDDIYHKERTGIIAASPILKIWSPSAE
- soluble fraction (log2): -0.0343

Sequence: HMEVFTPSEANVAEAREILAAMATAKANGEGATVYKGRLVDIASIKQAEVIVRQSEMIQSAH
- soluble fraction (log2): -0.151

Sequence: HMTDTIALRSVIAESGLKYKALAEIMGLSPYTLQMKIDNESEFKASEIDALANALGMDMQQRDSIFF
- soluble fraction (log2): -0.406

Sequence: HMELRSPMPGLIIEIPVSKGDIIKKDQSLIILEAMKMENVLTSPINGKIADIKVNVQDTVEKNNLLITFEN
- soluble fraction (log2): -1.23

Sequence: HMGKAMIDWEREQSILRILLRQKALTTEQAREVYQDGMREDLSALEMGVQRGYFTHEQLREATGGE
- soluble fraction (log2): 0.00817

Sequence: HMGAATQADIARVQELLNRLGYDAGSPDGLMGPRTRDAILEYQLTEGLETTGTVTRETLASLEARL
- soluble fraction (log2): -0.939

Sequence: HMSLSISSLVFFRKNAGLTQADIATAMSITQSAVARLEKRLLSDSDVTLKTLERYAEAVGIRMHVDFEP
- soluble fraction (log2): -0.0175

Sequence: HMSSSYVYGGNGEIVILSDVSKHLNVYNLNGQKVTDVNLTAGELQRISIATGIYVVGGKKIVV
- soluble fraction (log2): -0.121

Sequence: HMARAESYGDIARLEQLLDEHANIAALDPGKLPAVRQQIWTLMRAARMDHDLGLAERPEDDSFDDMLLHV
- soluble fraction (log2): -0.0475

Sequence: HMGVVEEVAADFEGRAVVGKVDVDEQTELARRFGIMSIPTLVVMKGGKVVEQAVGARGKADIAAMLERH
- soluble fraction (log2): -0.673

Sequence: HMVAESGLPPAFRSTWRHIMQTRGAQLDVLAMRTGTDAASLQKQLHAMELGGWVRRMPGGWYVPLK
- soluble fraction (log2): -0.1

Sequence: HMVNLLVTPLEELEINFRTLRALRKYNIYQLEDLLRFIKYNGFDALRIVPGMGIKSTEQLYEKLKDKNI
- soluble fraction (log2): -1.06

Sequence: HMATAADLLQSATGVPRSDALLLLAKLLGVAKERLIAHPETVVSEKTQATFSDWIERVRGGFPTTYLLG
- soluble fraction (log2): 0.0658

Sequence: HMLAAAVVVYATDKVNVRAEASETADVIGQLEAGSQTTRLEDKDGWSRIDYSNGTQGYMKSEFLSTEAPT
- soluble fraction (log2): -0.622

Sequence: HMVQIIQLQGTDKRLYELVAPLVMNPEILKQNYNYPFRTSEDFVWFVAVDKKKVIGFIPVEEKKKEYVI
- soluble fraction (log2): -0.275

Sequence: HMNYLDVNIPVTSAVWMGKQLPEMGTLIYLTPDKDVEGMLFIKQATKDKPDGEYIEAKVLGYKEGRVLFDF
- soluble fraction (log2): -1.48

Sequence: HMAEQVLHQKLAARRKELNSLVAQVARVRGIPHSHVHSGLRREAGGPPLAQATTDQVEARISLARKWLRA
- soluble fraction (log2): -0.000969

Sequence: HMNPEDDLLKAIIMKYFSNAQVQVDKNVIEYLLKRVDRDYQNLYNILEKINILSLQRKSKITTHLIRDIM
- soluble fraction (log2): -0.624

Sequence: HMLIGLNETESLVLDALIANPMRIDQVSAMLKKDVATTLKFLGGLSVRGLVETLFGGRFAPTKIALHARS
- soluble fraction (log2): -0.247

Sequence: HMQERTVVKGVVVQVSRDEAYVDIGYKQEIPVSKRDLAVPAPDDARDVVKVGDEIDVYIKSLGGDNGG
- soluble fraction (log2): -0.0346

Sequence: HMPTPASGSSGYINATNVNFRTGPATSYKSISKLAKNTAVTILGTSGNWYKVTVGSLGKNGYVFATYVTVS
- soluble fraction (log2): -0.332

Sequence: HMSTGGDLTQRERELLGLMARGLSNQEISKRLTIAMPTVKFHVTNILAKLHADNRTEAVLVALKNKLVAL
- soluble fraction (log2): -0.175

Sequence: HMLNDMYAVMEIRGQGGELIAKLINQDGSPFYVKKGTTLQSGHVIDEITTTYVRAEKAGAKDYLYF
- soluble fraction (log2): -1.65

Sequence: HMKLFGTPGSPFARKVRIVLEEKRIPHEYIIERGSAPGSRVPQYNPLGKVPTLVLDDGRGLYDSPVIVEYL
- soluble fraction (log2): -0.108

Sequence: HMGAIVTVPDLAGRPQPGAEAELRRSGLVPKVRTSYSLTGTRGTVISQTPPAGSRVREGAEVEVVVSRGLN
- soluble fraction (log2): 0.0493

Sequence: HMSSSDYDVYNKAINLMLNLLKEPKSIEEVTASLNITKSQAITWINRALNEGKIIKTNRPVRYVVNN
- soluble fraction (log2): 0.0142

Sequence: HMDILPEGNYKVNYDVIDEVGNIVANKNDIVVTEKSIKPLNTILGIDLYEVIHSQTGKYFTINGDNLTN
- soluble fraction (log2): -0.328

Sequence: HMTSVAYVIDRINKIQNVYSELEALGLKDEFEKILSNIEDLSKKDIREIKTLLKTKGVIKNLDDLNVKL
- soluble fraction (log2): -1.24

Sequence: HMRQIMIIVLKSTATKEDSLLFKNKLEQEYGVKVNEWTGVESTVLGLIGDTTKIDIDYISAQDIVESVKRV
- soluble fraction (log2): -0.494

Sequence: HMTSVQDLLRNGDRVGYQNGSTVKYWLEEMGFHKKDLLGYVTVEEYAEALQRGSGNGGVSAIVD
- soluble fraction (log2): -1.7

Sequence: HMNENDENLRQQAIDASKEVRRWGEPVTLPPMNAHDRRIIHITLEGESDLQTESTGEGNFKSVVISLK
- soluble fraction (log2): 0.0645

Sequence: HMVADEGELLAIAREVVAANPKVFEDWKAGKQSAAQWFVGQIMKRTRGRANPQLALKLVTQALEEHAR
- soluble fraction (log2): -0.21

Sequence: HMLERKPVLVASRDLPALAVIGKDDLSVELLRTAPVGSYDRPEALLGKRVWVAVPAGSILSAATLEP
- soluble fraction (log2): -0.0428

Sequence: HMFANQLLLTRFDLNYIKSDVLSRQIDVLGIPIKKLTIEANNKSIWLQGTSQSLSKVRELIGIIDIRENA
- soluble fraction (log2): -1.73

Sequence: HMKNEQESIAQKLYEAALKNDFVTIQEIQSGGYRLRNDDLTHMRESGVQSNTLIAIQKIFGL
- soluble fraction (log2): -0.578

Sequence: HMDPALSPAEQKIWDLLAAGETHIDDLVRASGLPVATVNSALVMMEMKEVISQVAAKTYRRNRRN
- soluble fraction (log2): -0.458

Sequence: HMTANDKRNALYRKIEVGRRQLPAMDEVAFRQLLAAEFGVESRKDMSVGQLSRLVNILAEKGAVF
- soluble fraction (log2): 0.0414

Sequence: HMSFSPYLVRVSITDLNIRKGPGTNYAKTGKFTGKGVFTIVEMQTGKGSDTGWGRLKSGAGWISLDYTEKI
- soluble fraction (log2): 0.0318

Sequence: HMFEEPYLATYPVLIDPKLAFNVLDTMLEGLEVKMDQDEETGAISVLAPASIHTKITEYLDALSKQ
- soluble fraction (log2): -1.74

Sequence: HMGGQYQVRPGETLNQIAARVRPSNMSLSETQKAIIQANPDIFKNGNPNLIFAGDILRIPTGNQI
- soluble fraction (log2): -0.224

Sequence: HMYMWQVEDLLRANELDIENIKKTIIDHYQLDDAQKSELTRWYEDLINMMRLEGVTKEGHLQINK
- soluble fraction (log2): -1.75

Sequence: HMKERVSWDERLERFAKHITENESLPYPSSKEYAWFEENKALYDAGELEPVRAQSFAFLLKIMRRMNL
- soluble fraction (log2): 0.0752

Sequence: HMHFEWNELRKAINDFLAEQNMNEDKQLGPYFIQRDIVVPETGTEIDSKKFSEVFKHKVIMYLFDDAAKQ
- soluble fraction (log2): -0.441

Sequence: HMANYTVNAYNNGGTGGSVNMRSGPSTNDGIVVRVPHGATVTGTKSGTWSYMTYNTYTGYMMSVYLDEQS
- soluble fraction (log2): -0.0556

Sequence: HMGKEDISQINKLYQNQILDYETYIDTLNSFNIDTKSKDFKNLLDLFIKKSISFETFNKGIINIHNKS
- soluble fraction (log2): -1.01

Sequence: HMPFNLKSLADRLSHVFPGLVKMRDDIGAIIVMDKIKVTEHGVTEGGGLAADRVRAVYNEFIKEY
- soluble fraction (log2): 0.334

Sequence: HMQNDDLTKLDGIGPYIEQRLNDIGIYNYEQLSKLNTEDIQKITELIDFFPGRIERDNWVSQAQLLKI
- soluble fraction (log2): -0.807

Sequence: HMNERLKQLRLSLNLNQEEFGKWLGISKSGVSDIESGRRKVTEQHIIMLSNHNISEKWLRTGEGEMFV
- soluble fraction (log2): 0.0158

Sequence: HMSTPLPTGLPRGTIIEYTVQTDETLAIIAAKFNSTVDDIMTRNKITDPNTIYAGQILKVAINLVTP
- soluble fraction (log2): -0.267

Sequence: HMVSKEELANSIYENKTADELGNIVLRKGKYSGEMLRTIYVKDIGYLEWHSKQSYEYSNAVKWYLKKLE
- soluble fraction (log2): -0.846

Sequence: HMDENILKTRIEDLDLSVRTIKALTGASIRTVSGLARKKESDLLEISGLGDKGIQEIKRALGSLGITL
- soluble fraction (log2): -0.0429

Sequence: HMILNPQELGERIRKLRLKRNKTQSYFADMLYISSSYLALIESGKRVPNLDLLIHIAKFTDVTLDYLVFG
- soluble fraction (log2): -0.573

Sequence: HMIDSVFASYRQVALDDELWDKVRNGAVLPKVELFEVMDGPVLFTYQSKIVAMYEPHPTKAGYIKPRKMFL
- soluble fraction (log2): -1.52

Sequence: HMQRYFLEEAYQPSEKFELSAEAFHHIVHVMRMKPKDRVYLAFSDQQVIIAEITEITEEKVYLTEIEKEE
- soluble fraction (log2): -1.63

Sequence: HMTAQGDSSDAVQRAITEILRHEDPSHPFSDQQLVIKLRTMDISVSRRTVTKYRKLLHIPSSTHRK
- soluble fraction (log2): 0.0972

Sequence: HMKLTKPQEVFIQELLKGSSQYEAYLKAYPSKKTWKRNSIDTEASKLFKNAKIKQRYEELLYNIREE
- soluble fraction (log2): -0.175

Sequence: HMLPAGAAAPLEDGSAPEGYTVKGNADSGLYHEPDGRWYDATVAEFWFKTAADAEAAGFRKAGS
- soluble fraction (log2): -0.741
